Key:
[1] = target: H6-Smt3-Int^C(N125A)-CysTag(Alexa647)-Trx-H6; test: MST

Substance | Kd [1] [µM] | Kd (H6-Int^N(C1A)-mCherry) [µM] | koff (H6-Int^N(C1A)-mCherry) [s⁻¹] | kon (H6-Int^N(C1A)-mCherry) [M⁻¹ s⁻¹]
MBP-Int^N(C1A)-H6 (domain or fragment) | 0.0224 | – | – | –
SBP-Int^C(N125A)-eGFP (domain or fragment) | – | 0.0092 | 0.00082 | 85000
